T1: AtXTH22 (Arabidopsis thaliana, UniProt Q38857)
T1 construct: gene XTH22
T1 sequence (Q38857 22-284): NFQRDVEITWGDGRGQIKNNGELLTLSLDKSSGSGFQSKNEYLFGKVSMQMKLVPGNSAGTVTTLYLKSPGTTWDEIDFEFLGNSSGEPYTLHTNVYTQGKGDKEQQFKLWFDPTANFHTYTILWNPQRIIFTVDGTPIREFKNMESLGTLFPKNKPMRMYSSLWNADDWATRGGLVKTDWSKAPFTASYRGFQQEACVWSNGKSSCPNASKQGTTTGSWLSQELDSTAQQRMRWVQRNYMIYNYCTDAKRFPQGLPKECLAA

B1: AtXTH3 (Arabidopsis thaliana) (protein)
chain: RVFGGRGIEKFVTFGQNYIVTWGQSHVSTLHSGEEVDLYMDQSSGGGFESKDAYGSGLFEMRIKVPSGNTGGIVTAFYLTSKGGGHDEIDFEFLGNNNGKPVTLQTNLFLNGEGNREERFLLWFNPTKHYHTYGLLWNPYQIVFYVDNIPIRVYKNENGVSYPSKPMQVEASLWNGDDWATDGGRTKVNWSYSPFIAHFRDFALSGCNIDGRSNNVGACESSNYWWNAGNYQRLSGNEQKLYEHVRSKYMNYDYCTDRSKYQTPPRECY

Assays:
AtXTH22 = biological target: T1, AtXTH22; test: transglycosylation, size-exclusion chromatography with fluorescence detection; assay type: biochemical; details: 25 μM acceptor; donor tamarind xyloglucan 2 mg/mL; 50 mM sodium acetate pH 6.0, 30 °C, 24 h; labelled compound
[1] = substrate: OC[C@@H](O)[C@@H](O[C@@H]1O[C@H](CO)[C@@H](O[C@@H]2O[C@H](CO)[C@@H](O[C@@H]3O[C@H](CO)[C@@H](O)[C@H](O)[C@H]3O)[C@H](O)[C@H]2O)[C@H](O)[C@H]1O)[C@H](O)[C@@H](O)CNc1ccccn1; test: transglycosylation, fluorescent product by anion-exchange LC after cellulase digestion; assay type: biochemical, Arabidopsis thaliana; details: acceptor, donor amorphous cellulose, 50 mM sodium acetate pH 5.0, 30 °C, 6 h, labelled compound
Text: (§1) transglycosylation, fluorescent product by anion-exchange LC after cellulase digestion on AtXTH3 | Michaelis constant (KM) and turnover number (kcat) for acceptor oligosaccharides (left: GGGG-AP; right: XXXG-AP)

[2] = substrate: OC[C@@H](O)[C@@H](O[C@@H]1O[C@H](CO[C@H]2OC[C@@H](O)[C@H](O)[C@H]2O)[C@@H](O[C@@H]2O[C@H](CO[C@H]3OC[C@@H](O)[C@H](O)[C@H]3O)[C@@H](O[C@@H]3O[C@H](CO[C@H]4OC[C@@H](O)[C@H](O)[C@H]4O)[C@@H](O)[C@H](O)[C@H]3O)[C@H](O)[C@H]2O)[C@H](O)[C@H]1O)[C@H](O)[C@@H](O)CNc1ccccn1; test: as above; assay type: biochemical, Arabidopsis thaliana; details: acceptor, donor amorphous cellulose, 50 mM sodium acetate pH 5.0, 30 °C, 6 h, labelled compound
Text: as §1

| Molecule | transglycosylation, size-exclusion chromatography with fluorescence detection (AtXTH22) | Km [1] [µM] | kcat [1] | Km [2] [µM] | kcat [2] |
| --- | --- | --- | --- | --- | --- |
| OC[C@@H](O)[C@@H](O[C@@H]1O[C@H](CO[C@H]2OC[C@@H](O)[C@H](O)[C@H]2O)[C@@H](O[C@@H]2O[C@H](CO[C@H]3OC[C@@H](O)[C@H](O)[C@H]3O)[C@@H](O[C@@H]3O[C@H](CO[C@H]4OC[C@@H](O)[C@H](O)[C@H]4O)[C@@H](O)[C@H](O)[C@H]3O)[C@H](O)[C@H]2O)[C@H](O)[C@H]1O)[C@H](O)[C@@H](O)CNc1ccccn1 [XXXG-AP, aminopyridyl xyloglucan-heptasaccharide] | AtXTH22 almost exclusively transferred xyloglucans to xyloglucan oligosaccharides | – | – | – | – |
| B1 | – | 58.8 ± 8.4 | 8.0 ± 0.5 x10^-5 sec^-1 | 8.6 ± 2.3 | 9.0 ± 1.0 x10^-5 sec^-1 |
